The DeepSol protein solubility set

Experiment: soluble on expression in E. coli; label from the status in PepcDB or PDB records

Sequence	soluble on expression in E. coli
MSDMEKPWKEEEKREVLAGHARRQAPQAVDKGPVTGDQRISVTVVLRRQRGDELEAHVERQAALAPHARVHLEREAFAASHGASLDDFAEIRKFAEAHGLTLDRAHVAAGTAVLSGPVDAVNQAFGVELRHFDHPDGSYRSYVGDVRVPASIAPLIEAVLGLDTRPVARPHFRLRRRAEGEFEARSQSAAPTAYTPLDVAQAYQFPEGLDGQGQCIAIIELGGGYDETSLAQYFASLGVSAPQVVSVSVDGATNQPTGDPNGPDGEVELDIEVAGALAPGAKIAVYFAPNTDAGFLNAITTAVHDPTHKPSIVSISWGGPEDSWAPASIAAMNRAFLDAAALGVTVLAAAGDSGSTDGEQDGLYHVDFPAASPYVLACGGTRLVASAGRIERETVWNDGPDGGSTGGGVSRIFPLPSWQERANVPPSANPGAGSGRGVPDVAGNADPATGYEVVIDGETTVIGGTAAVAPLFAALVARINQKLGKPVGYLNPTLYQLPPEVFHDITEGNNDIANRARIYQAGPGWDPCTGLGSPIGIRLLQALLPSASQAQP	soluble
GPGSMRLSLLRRFCEYVPKGAPTQVSLSVETPYGVTRAFRMTEMAAAAADAERDAKGFFYLPRMDYDVGQGVAPLMSRKQFDVQYNVFHKAAVDRLNAHTLGSELEGHNLNVVIRNSSFDASHAVIHAAASEHFNYCFWYRSLRPWGTAVPARLKEELQLQYSQNGTLDAVKEVQRLFTVAALSQQSAGGWVYLVWTGKAFDVIPFDHGTCPIGSDLIPLLALNTHESARCYDYPLAAEDEEGDEVERFVRNFFKTCNWRLVEHYFLQCGRA	not soluble
MGSDKIHHHHHHMTQDAQCTRRTDWIPLAREVLDIEIEGIAAMRDRLNGGFVDALTLMARCTGRVVITGLGKSGLVGRKLAATLSSTGTPAFFLHPVEGAHGDMGMLRSDDVIIAISNSGETDELNAILPALRSLGASLIAMTGGLESTLAKSADVVLDTGVRREACPLNLAPTASTTAVLAMGDALAVCLIHWKSFTENDFLRFHPGGSLGHRLSMRVESLMHTENLPVVRETVRTGEALRVLDEGRLGTVLVTDGQGRLSGILTDGDVRRMVCREAGVETASPVANVMVRSPLTARKEFSVAQLIDMMEERAITVLPITGDDGLLLGVVHLHDLLGKGGVKFSR	not soluble
MSLDLAADILVADAHMHTNPTRGLGAREVARRFRREGGWFAALLTLTTWSYGLAPTGVEAYRRMYEIHLRECRAAREEGLRVACFAGIHPAEVDRMIDKHRQPPEKALETALEAVEVLRRLCREGAIDGVGEVGRQHYRTSPLRVAIAEVVLEEAAAAALEEGCLLQLHLENEGPATVETVDRILRRAGATGARRGMVIFHHATLRVAKEAVARGYNATIPGVPKLLEHAAANEPPDYMVESDYLDDPARPGAVVEPWKMAQKLREIASRTPETREWVRRTNIDLVERVFQASPPEGHHHHHH	soluble
MLDDCEASGFINDKRYAELLVRSNIARGHGPIRIRQAIAQKGLTKDCIEAALIATDYDWFELAKAKAKAKAIKKYGVPKVTEVKGSQSRELIAKEKAKRVRFLLSQGFSYEQVIYALDYDPLEDNDD	not soluble
SNANAEPAVKAESAGKSVAASLKARLEKTYSAQDLKVLSVSETPVKGIYEVVVSGRQIIYTDAEGGYMFVGELINIDTRKNLTEERAADLNKIDFASLPLDKAIKEVRGNGKLKVAVFSDPDCPFCKRLEHEFEK	not soluble
MAEQLSPGKAVDQVCTFLFKKPGRKGAAGRRKRPACDPEPGESGSSSDEGCTVVRPEKKRVTHNPMIQKTRDSGKQKAAYGDLSSEEEEENEPESLGVVYKSTRSAKPVGPEDMGATAVYELDTEKERDAQAIFERSQKIQEELRGKEDDKIYRGINNYQKYMKPKDTSMGNASSGMVRKGPIRAPEHLRATVRWDYQPDICKDYKETGFCGFGDSCKFLHDRSDYKHGWQIERELDEGRYGVYEDENYEVGSDDEEIPFKCFICRQSFQNPVVTKCRHYFCESCALQHFRTTPRCYVCDQQTNGVFNPAKELIAKLEKHRATGEGGASDLPEDPDEDAIPIT	soluble
MPNITWCDLPEDVSLWPGLPLSLSGDEVMPLDYHAGRSGWLLYGRGLDKQRLTQYQSKLGAAMVIVAAWCVEDYQVIRLAGSLTARATRLAHEAQLDVAPLGKIPHLRTPGLLVMDMDSTAIQIECIDEIAKLAGTGEMVAEVTERAMRGELDFTASLRSRVATLKGADANILQQVRENLPLMPGLTQLVLKLETLGWKVAIASGGFTFFAEYLRDKLRLTAVVANELEIMDGKFTGNVIGDIVDAQYKAKTLTRLAQEYEIPLAQTVAIGDGANDLPMIKAAGLGIAYHAKPKVNEKAEVTIRHADLMGVFCILSGSLNQK	not soluble
MLLLQFSNMVEPTGPAIVEDERTKALNSYRRKLAECRDIEQKLKDLRKKESEMTKQFDKSENDIKSLQSVGQIVGEVLKQLSEEKFIVKATNGPRYVVGCRRSINKEELKQGTRVSLDMTTLTIMRQLPREVDPLVYKMSHEDPGNISYSDVGGLAEQIRELREVVELPLINPELFKRVGITPPKGCLLFGPPGTGKTLLARAVASQLDCNFLKVVSSAIVDKYIGESARMIREMFNYARDHQPCIVFMDEIDAIGGRRFSEGTSADREIQRTLMELLNQLDGFDSLGKVKVIMATNRPDTLDPALLRPGRLDRKIEIGLPNEQSRLEILKIHSNKITKHGEIDFEAVVKLSDGFSAADLRNVCTEAGMFAIRAEREFVIDEDFMKAVRKVGDAKRLETKLDYKPV	not soluble
MPLLDSFKVDHTKMNAPAVRIAKTMLTPKGDNITVFDLRFCIPNKEILSPKGIHTLEHLFAGFMRDHLNGDSIEIIDISPMGCRTGFYMSLIGTPNEQKVSEAWLASMQDVLGVQDQASIPELNIYQCGSYTEHSLEDAHEIAKNVIARGIGVNKNEDLSLDNSLLKGSHHHHHH	soluble
MAAATGGLTPEQIIAVDGAHLWHPYSSIGREAVSPVVAVAAHGAWLTLIRDGQPIEVLDAMSSWWTAIHGHGHPALDQALTTQLRVMNHVMFGGLTHEPAARLAKLLVDITPAGLDTVFFSDSGSVSVEVAAKMALQYWRGRGLPGKRRLMTWRGGYHGDTFLAMSICDPHGGMHSLWTDVLAAQVFAPQVPRDYDPAYSAAFEAQLAQHAGELAAVVVEPVVQGAGGMRFHDPRYLHDLRDICRRYEVLLIFDEIATGFGRTGALFAADHAGVSPDIMCVGKALTGGYLSLAATLCTADVAHTISAGAAGALMRGPTFMANPLACAVSVASVELLLGQDWRTRITELAAGLTAGLDTARALPAVTDVRVCGAIGVIECDRPVDLAVATPAALDRGVWLRPFRNLVYAMPPYICTPAEITQITSAMVEVARLVGSLP	soluble
MLNQNERHQILEEAVEWLMQMKQKPLNEIELLEFEQWKNRSQLHQSIWQQAYQLEEKFQSLPSHIAIPIIQKQKSHPDIWLMVLSCLPLLGLLYVMNQQQQWTADYRNGFHAPQTVKLPDGGKIILNSNTAIDVKYTAKKRDIILRKGEIWIETQHDVKNRPFTVYTQQGQAQALGTKYLVKIDQKSSQIAVLKGAVKVQPKTNNQYVIITKGQKISINQYNLHSVEYFDHSEIGWTKGLIMVNEIPLSEFVQKLRPYQSALIYLDPEVSNIKISGTFPIANMAQLYEMLENTYAIDVDRYAMNHIIRIRQKK	not soluble
MGSDKIHHHHHHAQSKSSVYKPWSHGQLKVSKENRYLMNADGTPFFWLGDTGWLLPEKLNRDEAAYYLEHCRQAGFNVVQVQTINGVPAMNFYGQYSMIDGFNFKNIDRKGVYGYWDHMDYIIQKAEQNGIYIAMVCIWGGLVRSGKMNVEEAKAYGRFLGERYKDAPNIIWVIGGDTYADRNTEIWEALANSILAVDENHIMTFHPFGRTSSATHLNNKEWMDMNMFQSGHRRYGQKKGDGDTSVTGLEEDNWRYVEEALSMTPLKPVLDAEPSYEGIPQGLHDPAQPRWRDCDVRRYGYWSVFAGSCGHTYGHNNIMQFLKPGTPGGYGADGIEKPWYKAMQDPGFNQMKYLKNLMLTFPYFERVPDQSVIAGTNGNRYDRAIATRGKDYLLVYNYSGNPMSVDLTKISGAKKKVWWYSPKDGKLSFIGEFDSKITPFTYDGSYNRDNDQVLIAIDSSKNYISTEWLELPMVNQ	not soluble
EEYPDGFAPMKPDQAEEAVLAGIALSACLIETNRRERFADRLRAAAGALREDWVVKIGDNHVAARLLDGLVTIPFDMDIAIEGAIEGESKSVVTDWR	not soluble
